Results: the supplement of paper PMC10126150
± gives the standard deviation of the averaged measurements.

What follows are sequences tested on ATP (assay: switch fluorescence ratio, 500 uM ATP over buffer (Cy3 cluster intensity, sum of 5 cycles each) (fold (ratio)); higher = stronger signal-on switching upon ATP binding; sequences stand for … in TCGTCGGCAGCGTCAGATGTGTATAAGAGACAGTTTTTTTTTTTTTTTTTTTTTTTTT…TC). Conditions: aptamer strand: ATP DNA aptamer (quencher-CACCTGGGGGAGTATTGCGGAGGAAGG + anchor), 100 nM annealed; ATP concentration: 500 uM.
Summary of the method: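 For every switch-domain sequence, the fluorescence ratio is the mean of per-cluster values, each being summed target-cycle Cy3 intensity over summed buffer-cycle Cy3 intensity. Clusters outside 100-1000 RFU were excluded. On a modified Illumina MiSeq flow-cell, the Cy3-labelled switching-strand clusters were annealed to 100 nM quencher-labelled ATP aptamer, imaged in selection buffer and then after 15 min with 500 uM ATP at 22 °C. Five such cycles were run, with NaOH stripping and re-annealing between them.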
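Also: ATP exposure 15 min at 22 °C before imaging.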

Sequence | switch fluorescence ratio
TTTATTAACT | 1.06 ± 0.072
AGAATGGTCG | 1.03 ± 0.03
TGGGGAGCAA | 1.73 ± 0.074
AGGTGATTCT | 1.04 ± 0.025
CGGCACAATA | 1.78 ± 0.041
ACTGGTATA | 0.994 ± 0.032
CGATTGCAG | 1.0118 ± 0.00044
GGCGGAAGTA | 1 ± 0.019
CTTGGTTTTT | 1.01 ± 0.022
TATGCAACTT | 0.993 ± 0.015
AAGAAATGTA | 1.013 ± 0.0063
CATTTCTAGA | 0.9709 ± 0.0055
GCAGCTGGG | 1.03 ± 0.039
CAAGGAATGG | 0.995 ± 0.035
ATAGCAGTCG | 1.04 ± 0.077
CTTAAGGGAA | 0.9915 ± 0.0065
TTGGGGTGGA | 0.99 ± 0.018
TAGGAGATTT | 0.998 ± 0.03
ACTCATTTC | 1.03 ± 0.047
ATTCTAACGA | 1.032 ± 0.0036
CTTTTTAGTG | 0.982 ± 0.023
GTGGTTAAGA | 0.9961 ± 0.002
TATTAAAGAC | 1.04 ± 0.1

Sequence | switch fluorescence ratio
TATGCTTGGT | 1.015 ± 0.003
CAATGAGCTT | 0.9907 ± 0.0087
GCGTGATAAT | 1 ± 0.062
TGGGGTGCTG | 1.05 ± 0.016
GGGGCTCATG | 0.99 ± 0.014
AGAAAAGGTT | 0.98 ± 0.021
CTCGAGGGGG | 1.18 ± 0.34
CAGAGGAGTT | 1.01 ± 0.051
CAATTAAACC | 1.05 ± 0.028
GGTCGTTCGC | 1.01 ± 0.038
TAAATCCTGG | 0.961 ± 0.023
GCTTGTCTTC | 1.005 ± 0.0014
GAGCCACGGG | 1.04 ± 0.015
GTTTTATCAG | 0.961 ± 0.039
GAGTTAATGC | 1.01 ± 0.049
GGGGTGGCAG | 0.975 ± 0.027
GCGGAAGGGG | 0.988 ± 0.015
AGTAGGGCTT | 1.01 ± 0.039
ATAGGCGTTT | 0.975 ± 0.018
CTTCGGGGGT | 1.02 ± 0.019
AGCGCGTTGT | 1.02 ± 0.044
GGGGTTTAAG | 0.969 ± 0.025
AGTCGATGTG | 0.966 ± 0.025

Sequence | switch fluorescence ratio
TCGCGCCTTG | 1.01 ± 0.021
AACTTATCGG | 1.01 ± 0.036
AGATTTGGTT | 1.01 ± 0.032
GGCTGGATTT | 0.98525 ± 0.00086
GTATCGAGAG | 1.01 ± 0.013
AGTCATGGAG | 0.987 ± 0.042
TTGTTGAGTG | 0.968 ± 0.028
CCCCTTGTTC | 1.01 ± 0.02
TTTTAACTAC | 1.18 ± 0.15
AGATATGAAC | 1.04 ± 0.044
AGAATCCAGC | 0.982 ± 0.021
AAAATTTTGA | 0.992 ± 0.025
GCTTTGATGT | 0.9839 ± 0.0032
CCTGCTAAGT | 1 ± 0.058
GAAATGCGCA | 1.08 ± 0.17
TTGGGAATA | 0.988 ± 0.035
TTTACTGTTT | 1.01 ± 0.082
GCTGATTTCG | 1 ± 0.029
TAGAATGTTT | 1.02 ± 0.012
CGATTAAAGT | 0.997 ± 0.031
CGGTGTTGGA | 0.978 ± 0.039
GGGTAGGGAT | 1 ± 0.032
AAGAGCGGGG | 0.989 ± 0.043

Sequence | switch fluorescence ratio
TACAGGGTCG | 1.13 ± 0.049
GCAGTGGGTT | 1.02 ± 0.074
TAGACCTTAA | 1.09 ± 0.029
CCTCGAGGGT | 1.09 ± 0.07
ATATCTTTTT | 0.983 ± 0.037
GGAGATATCA | 1.035 ± 0.0074
ATTACTTTGC | 1.05 ± 0.021
GTTGGTATGA | 0.989 ± 0.017
CAATCCTTTT | 1.01 ± 0.018
AAGAAAGTCT | 0.995 ± 0.068
GGTTCGCAGC | 1.15 ± 0.025
AATAGGGTTT | 0.967 ± 0.011
GCGAATGTTT | 0.9812 ± 0.0029
GTGAGGTATC | 1.04 ± 0.032
TTTGGTGGCT | 1.01 ± 0.015
GGACTAGATG | 0.978 ± 0.013
CGTGTGCATG | 1.06 ± 0.13
AGGGGCTGAA | 0.986 ± 0.042
AAAACGTAAC | 1.25 ± 0.1
CGGGTAAGCC | 0.961 ± 0.027
CGTGGTCATC | 0.9766 ± 0.0073
TCATCAGGGC | 1.08 ± 0.034
GGGGGAGTTT | 1.01 ± 0.011

Sequence | switch fluorescence ratio
GATTATAAGG | 1.007 ± 0.01
TTCTCCCGGG | 1.29 ± 0.068
CGTATTATAA | 1.01 ± 0.023
TATGCGGGCG | 0.939 ± 0.072
CAAGGACGAT | 1.004 ± 0.0015
CATATTCTTT | 0.979 ± 0.016
GATATCGCCG | 1.022 ± 0.0034
CGCGAGGGTT | 1.008 ± 0.007
CTATTATGTT | 1 ± 0.019
GGAACGTGTT | 1.004 ± 0.0097
TGAGAGGGGG | 1 ± 0.083
CGTGGGGCAG | 1.01 ± 0.024
GAGTTTTGTG | 0.961 ± 0.015
TGAGTAAGGG | 0.991 ± 0.029
CGCATGGGGG | 1.08 ± 0.011
TGATAAGTAC | 1.38 ± 0.065
GGCATGGGGG | 0.984 ± 0.017
TGGTGGTGTC | 0.985 ± 0.05
CTCGATAAAA | 0.975 ± 0.022
TCCGCGGCTT | 2.12 ± 1.5
GGGGGGTACA | 1.01 ± 0.047
CGGGCTGGTG | 1.0093 ± 0.0005
TGTAATAGGG | 0.979 ± 0.013

Sequence | switch fluorescence ratio
TACTGTCTTG | 0.97 ± 0.014
CGTTTTTGCC | 1.0037 ± 0.00025
GTGATTTGT | 1.01 ± 0.03
GATGGGTGAC | 0.992 ± 0.024
TGGCTCAGTG | 1.024 ± 0.0018
TGGCGGCCGA | 0.996 ± 0.021
ACGGGGGACA | 1.02 ± 0.035
TGGGGGACTA | 0.967 ± 0.033
CGTTAGGATG | 0.984 ± 0.011
CCCTGGGGGT | 1.15 ± 0.067
AGAAAGGTCT | 1.026 ± 0.0085
GGGATAAATA | 0.9996 ± 0.0023
TAATCTGGTA | 0.986 ± 0.017
TTAATCTGCG | 1.01 ± 0.032
TGAATTCTTG | 1 ± 0.034
CGGGGGTTTG | 1.01 ± 0.031
AGCATGGGGG | 1.01 ± 0.023
TGTCTCTACG | 1.021 ± 0.01
AAGGGGTTAA | 1.03 ± 0.022
AGCGGGGGGA | 1.01 ± 0.025
AGGGCGTGGC | 0.9876 ± 0.0018
TACAGATGT | 1.028 ± 0.01
TATGTGGCGG | 0.974 ± 0.022

Sequence | switch fluorescence ratio
GCCGATAGGG | 0.9975 ± 0.0039
TTTTAATTAA | 1.01 ± 0.044
ATTGGGGACT | 1.01 ± 0.019
GGGCAGGGTA | 0.9883 ± 0.0076
TTCAAGTAGT | 0.997 ± 0.02
TAGGTGCTGG | 1.04 ± 0.07
TATCGCTCAT | 0.9765 ± 0.0073
TAGCTCCGAC | 1.399 ± 0.0031
GCTAGTTGGT | 0.99 ± 0.017
TTTAAACGCT | 0.997 ± 0.036
AATTCCGGTC | 1.093 ± 0.0066
CAGCGGGCGA | 1.01 ± 0.032
TTATTGGTGG | 0.966 ± 0.04
GAGTGGGAGC | 0.997 ± 0.066
TTAAAAATAA | 1.04 ± 0.073
AGTAGGGCGA | 1 ± 0.092
ACGCATTCAT | 1.14 ± 0.027
AATCGGCACG | 1.01 ± 0.02
CGCCCCGGCC | 1.06 ± 0.097
